Source: patent US11279747 (UNIVERSITAT ZURICH, dated 2022)

Assays:
human KIR3DL3 [1] = target: T1, human KIR3DL3 (human, UniProt Q8N743 26-322, limits assumed); test: ELISA, receptor coated at 10 µg/mL, HLA2-Fc at 10 µg/mL, anti-human Fc-HRP
T1 construct: Bought protein coated on the ELISA plate; also called hu KIR3DL3
Protocol: (§1) Competition ELISA assays were performed using Maxisorp (Nunc, Switzerland) 96 well plates coated with 10 μg/mL of selected leukocyte receptors (human KIR3DL1, human KIR3DL2, human KIR3DL3, human LILRB1, human LILRB2, human PTPRJ and mouse Pirb) purchased from Creative Biomart. Receptors were incubated for ON 4° C., blocked with 5% milk powder-TBS 2 hrs. HLA_2-Fc selected constructs (A25_2-Fc, A30_2-Fc, B2705_2-Fc, B53_2-Fc, B57_2-Fc, B58_2-Fc, C08_2-F, and C12_2-Fc) and their controls (A25-β2m-Fc, A30-β2m-Fc, B2705-β2m-Fc, B53-β2m-Fc, B57-β2m-Fc, B58-β2m-Fc, C08-β2m-Fc and C12-β2m-Fc) and isotype IgG4 were added at 10 μg/mL for 2 hrs RT. HRP-conjugated antibodies against human Fc were used as detectors.

human LILRB2 [2] = target: T2, human LILRB2 (human, UniProt Q8N423 22-458, limits assumed); test: as above
T2 construct: Bought protein coated on the ELISA plate
T2 sequence (Q8N423 22-458 limits assumed): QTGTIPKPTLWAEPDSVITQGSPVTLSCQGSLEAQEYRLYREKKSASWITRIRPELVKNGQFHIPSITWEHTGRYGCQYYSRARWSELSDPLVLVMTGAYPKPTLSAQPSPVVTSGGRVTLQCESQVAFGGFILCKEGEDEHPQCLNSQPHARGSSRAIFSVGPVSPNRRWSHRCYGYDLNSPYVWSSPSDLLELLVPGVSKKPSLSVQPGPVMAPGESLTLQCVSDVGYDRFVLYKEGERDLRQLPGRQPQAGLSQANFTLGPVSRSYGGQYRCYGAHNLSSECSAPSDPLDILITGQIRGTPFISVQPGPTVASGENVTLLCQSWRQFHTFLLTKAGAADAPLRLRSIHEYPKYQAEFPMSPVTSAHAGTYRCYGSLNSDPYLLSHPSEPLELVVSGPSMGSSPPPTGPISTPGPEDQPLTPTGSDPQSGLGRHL
Protocol: as §1

human KIR3DL1 [3] = target: T3, human KIR3DL1 (human, UniProt P43629 22-340, limits assumed); test: as above
T3 construct: Bought protein coated on the ELISA plate; also called hu KIR3DL1
T3 sequence (P43629 22-340 limits assumed): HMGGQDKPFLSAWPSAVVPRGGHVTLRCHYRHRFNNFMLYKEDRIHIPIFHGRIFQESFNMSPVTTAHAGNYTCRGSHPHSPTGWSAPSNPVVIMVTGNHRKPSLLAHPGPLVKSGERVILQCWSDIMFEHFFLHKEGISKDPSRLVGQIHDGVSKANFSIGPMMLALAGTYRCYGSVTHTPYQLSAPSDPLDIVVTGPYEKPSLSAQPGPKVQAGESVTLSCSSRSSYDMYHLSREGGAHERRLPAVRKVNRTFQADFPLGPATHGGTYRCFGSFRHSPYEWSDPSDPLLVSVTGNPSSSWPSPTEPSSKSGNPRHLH
Protocol: as §1

human LILRB1 [4] = target: T4, human LILRB1 (human, UniProt Q8NHL6 24-458, limits assumed); test: as above
T4 construct: Bought protein coated on the ELISA plate
T4 sequence (Q8NHL6 24-458 limits assumed): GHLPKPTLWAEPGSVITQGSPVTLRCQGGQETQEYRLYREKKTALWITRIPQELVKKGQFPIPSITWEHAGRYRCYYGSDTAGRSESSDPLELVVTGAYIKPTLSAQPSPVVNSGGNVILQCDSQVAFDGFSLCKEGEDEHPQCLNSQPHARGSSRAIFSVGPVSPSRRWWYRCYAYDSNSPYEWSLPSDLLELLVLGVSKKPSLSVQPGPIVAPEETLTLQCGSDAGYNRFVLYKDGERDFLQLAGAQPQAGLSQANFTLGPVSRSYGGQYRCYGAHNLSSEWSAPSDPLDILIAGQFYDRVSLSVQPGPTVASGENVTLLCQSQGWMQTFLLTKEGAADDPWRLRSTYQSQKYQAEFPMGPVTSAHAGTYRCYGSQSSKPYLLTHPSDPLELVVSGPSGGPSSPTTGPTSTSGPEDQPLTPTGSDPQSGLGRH
Protocol: as §1

mouse Pirb [5] = target: T5, mouse Pirb (mouse, UniProt P97484 25-642, limits assumed); test: as above
T5 construct: Bought protein coated on the ELISA plate; also called PirB (murine homologue to LILRB)
T5 sequence (looked up): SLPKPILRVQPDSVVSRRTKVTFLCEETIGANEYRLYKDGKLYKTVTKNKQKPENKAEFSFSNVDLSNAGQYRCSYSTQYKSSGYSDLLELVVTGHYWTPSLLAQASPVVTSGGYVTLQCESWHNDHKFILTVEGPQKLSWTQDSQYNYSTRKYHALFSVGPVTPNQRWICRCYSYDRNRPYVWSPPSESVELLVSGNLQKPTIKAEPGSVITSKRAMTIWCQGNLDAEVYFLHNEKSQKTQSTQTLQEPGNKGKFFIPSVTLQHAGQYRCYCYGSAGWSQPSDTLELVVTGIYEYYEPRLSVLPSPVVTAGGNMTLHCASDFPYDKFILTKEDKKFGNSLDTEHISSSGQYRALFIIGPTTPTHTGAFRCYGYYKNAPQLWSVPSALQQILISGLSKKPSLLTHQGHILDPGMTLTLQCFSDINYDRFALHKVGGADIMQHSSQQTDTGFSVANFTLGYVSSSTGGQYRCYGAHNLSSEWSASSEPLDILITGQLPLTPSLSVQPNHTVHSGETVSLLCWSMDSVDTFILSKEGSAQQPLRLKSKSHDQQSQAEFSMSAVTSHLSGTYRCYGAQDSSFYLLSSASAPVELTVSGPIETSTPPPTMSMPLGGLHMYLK
Protocol: as §1

human KIR3DL2 [6] = target: T6, human KIR3DL2 (human, UniProt P43630 22-340, limits assumed); test: as above
T6 construct: Bought protein coated on the ELISA plate; also called hu KIR3DL2
Protocol: as §1

human KIR3DL1 [7] = target: T3, human KIR3DL1; test: ELISA (FIG. 5A)
Protocol: (§2) A) hu KIR3DL1, B) hu KIR3DL2, and C) hu KIR3DL3 are expressed in NK cells and subpopulations of T cells. D) LILRB1, and E) LILRB2 expressed mostly in myeloid cells, F) PirB (murine homologue to LILRB) and G) PTPRJ (on leukocytes is preferentially expressed in MDSCs cells and activated T cells) Figure 5:
as §1

human KIR3DL2 [8] = target: T6, human KIR3DL2; test: ELISA (FIG. 5B)
Protocol: as §2, §1

human LILRB2 [9] = target: T2, human LILRB2; test: ELISA (FIG. 5E)
Protocol: as §2, §1

mouse Pirb [10] = target: T5, mouse Pirb; test: ELISA (FIG. 5F)
Protocol: as §2, §1

human KIR3DL3 [11] = target: T1, human KIR3DL3; test: ELISA (FIG. 5C)
Protocol: as §2, §1

human LILRB1 [12] = target: T4, human LILRB1; test: ELISA (FIG. 5D)
Protocol: as §2, §1

Measured: binding result

T1 sequence (Q8N743 26-322 limits assumed): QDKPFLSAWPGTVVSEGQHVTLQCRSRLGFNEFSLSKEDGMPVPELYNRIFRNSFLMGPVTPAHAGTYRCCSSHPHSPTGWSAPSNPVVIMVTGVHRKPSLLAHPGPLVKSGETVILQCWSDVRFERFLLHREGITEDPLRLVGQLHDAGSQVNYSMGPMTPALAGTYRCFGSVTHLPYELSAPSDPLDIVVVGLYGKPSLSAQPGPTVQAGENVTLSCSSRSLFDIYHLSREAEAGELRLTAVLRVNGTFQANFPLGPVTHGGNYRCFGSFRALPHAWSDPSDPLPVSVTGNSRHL

B1: A252-Fc (Fc fusion)
chain: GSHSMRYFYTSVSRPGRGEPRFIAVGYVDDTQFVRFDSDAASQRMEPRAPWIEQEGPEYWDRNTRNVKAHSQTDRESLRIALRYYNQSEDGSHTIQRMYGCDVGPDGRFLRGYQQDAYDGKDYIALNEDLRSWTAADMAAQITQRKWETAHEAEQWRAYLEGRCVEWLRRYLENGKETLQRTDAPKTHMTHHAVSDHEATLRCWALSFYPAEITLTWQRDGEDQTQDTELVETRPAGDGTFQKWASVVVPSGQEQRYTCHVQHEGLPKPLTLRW
notes: also called HLA2-Fc; HLA-A25 open conformer; not shown: human IgG4 Fc (human IgG4-Fc vector, InvivoGen)
binds: human KIR3DL3 [1] | human LILRB2 [2] | human KIR3DL1 [3] | human LILRB1 [4] | mouse Pirb [5] | human KIR3DL2 [6]

B2: A302-Fc (Fc fusion)
chain: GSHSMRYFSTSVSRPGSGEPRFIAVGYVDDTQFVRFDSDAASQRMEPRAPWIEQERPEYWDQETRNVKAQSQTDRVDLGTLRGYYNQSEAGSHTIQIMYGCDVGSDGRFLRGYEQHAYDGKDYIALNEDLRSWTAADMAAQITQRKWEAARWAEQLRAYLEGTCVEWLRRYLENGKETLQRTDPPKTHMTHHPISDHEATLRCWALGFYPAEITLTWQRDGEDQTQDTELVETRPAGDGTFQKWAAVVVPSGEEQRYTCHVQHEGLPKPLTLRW
notes: also called HLA2-Fc; HLA-A30 open conformer; not shown: human IgG4 Fc (human IgG4-Fc vector, InvivoGen)
binds: human KIR3DL3 [1] | human LILRB2 [2] | human LILRB1 [4] | mouse Pirb [5] | human KIR3DL1 [7] | human KIR3DL2 [8]

B3: C082-Fc (Fc fusion)
chain: CSHSMRYFYTAVSRPGRGEPRFIAVGYVDDTQFVQFDSDAASPRGEPRAPWVEQEGPEYWDRETQKYKRQAQTDRVSLRNLRGYYNQSEAGSHTLQRMYGCDLGPDGRLLRGYNQFAYDGKDYIALNEDLRSWTAADTAAQITQRKWEAARTAEQLRAYLEGTCVEWLRRYLENGKKTLQRAEHPKTHVTHHPVSDHEATLRCWALGFYPAEITLTWQRDGEDQTQDTELVETRPAGDGTFQKWAAVVVPSGEEQRYTCHVQHEGLPEPLTLRW
notes: also called HLA2-Fc; HLA-C08 open conformer; not shown: human IgG4 Fc (human IgG4-Fc vector, InvivoGen)
binds: human LILRB2 [9] | human KIR3DL1 [7] | mouse Pirb [10] | human KIR3DL2 [8] | human KIR3DL3 [11] | human LILRB1 [12]

B4: C122-Fc (Fc fusion)
chain: CSHSMRYFYTAVSRPGRGEPRFIAVGYVDDTQFVRFDSDAASPRGEPRAPWVEQEGPEYWDRETQKYKRQAQADRVSLRNLRGYYNQSEAGSHTLQRMYGCDLGPDGRLLRGYDQSAYDGKDYIALNEDLRSWTAADTAAQITQRKWEAAREAEQWRAYLEGTCVEWLRRYLENGKETLQRAEHPKTHVTHHPVSDHEATLRCWALGFYPAEITLTWQRDGEDQTQDTELVETRPAGDGTFQKWAAVVVPSGEEQRYTCHVQHEGLPEPLTLRW
notes: also called HLA2-Fc; HLA-C12 open conformer; not shown: human IgG4 Fc (human IgG4-Fc vector, InvivoGen)
binds: human LILRB2 [9] | human KIR3DL1 [7] | mouse Pirb [10] | human KIR3DL2 [8] | human KIR3DL3 [11] | human LILRB1 [12]

B5: B582-Fc (Fc fusion)
chain: GSHSMRYFYTAMSRPGRGEPRFIAVGYVDDTQFVRFDSDAASPRTEPRAPWIEQEGPEYWDGETRNMKASAQTYRENLRIALRYYNQSEAGSHIIQRMYGCDLGPDGRLLRGHDQSAYDGKDYIALNEDLSSWTAADTAAQITQRKWEAARVAEQLRAYLEGLCVEWLRRYLENGKETLQRADPPKTHVTHHPVSDHEATLRCWALGFYPAEITLTWQRDGEDQTQDTELVETRPAGDRTFQKWAAVVVPSGEEQRYTCHVQHEGLPKPLTLRW
notes: also called HLA2-Fc; HLA-B58 open conformer; not shown: human IgG4 Fc (human IgG4-Fc vector, InvivoGen)
binds: human KIR3DL3 [1] | human LILRB2 [2] | human KIR3DL1 [3] | human LILRB1 [4] | mouse Pirb [5] | human KIR3DL2 [6]

B6: B572-Fc (Fc fusion)
chain: GSHSMRYFYTAMSRPGRGEPRFIAVGYVDDTQFVRFDSDAASPRMAPRAPWIEQEGPEYWDGETRNMKASAQTYRENLRIALRYYNQSEAGSHIIQVMYGCDVGPDGRLLRGHDQSAYDGKDYIALNEDLSSWTAADTAAQITQRKWEAARVAEQLRAYLEGLCVEWLRRYLENGKETLQRADPPKTHVTHHPISDHEATLRCWALGFYPAEITLTWQRDGEDQTQDTELVETRPAGDRTFQKWAAVVVPSGEEQRYTCHVQHEGLPKPLTLRW
notes: also called HLA2-Fc; HLA-B57 open conformer; not shown: human IgG4 Fc (human IgG4-Fc vector, InvivoGen)
binds: human KIR3DL3 [1] | human LILRB2 [2] | human KIR3DL1 [3] | human LILRB1 [4] | mouse Pirb [5] | human KIR3DL2 [6]

B7: B532-Fc (Fc fusion)
chain: GSHSMRYFYTAMSRPGRGEPRFIAVGYVDDTQFVRFDSDAASPRTEPRAPWIEQEGPEYWDRNTQIFKTNTQTYRENLRIALRYYNQSEAGSHIIQRMYGCDLGPDGRLLRGHDQSAYDGKDYIALNEDLSSWTAADTAAQITQRKWEAARVAEQLRAYLEGLCVEWLRRYLENGKETLQRADPPKTHVTHHPVSDHEATLRCWALGFYPAEITLTWQRDGEDQTQDTELVETRPAGDRTFQKWAAVVVPSGEEQRYTCHVQHEGLPKPLTLRW
notes: also called HLA2-Fc; HLA-B53 open conformer; not shown: human IgG4 Fc (human IgG4-Fc vector, InvivoGen)
binds: human KIR3DL3 [1] | human LILRB2 [2] | human KIR3DL1 [3] | human LILRB1 [4] | mouse Pirb [5] | human KIR3DL2 [6]

B8: B272-Fc (Fc fusion)
chain: GSHSMRYFHTSVSRPGRGEPRFITVGYVDDTLFVRFDSDAASPREEPRAPWIEQEGPEYWDRETQICKAKAQTDREDLRTLLRYYNQSEAGSHTLQNMYGCDVGPDGRLLRGYHQDAYDGKDYIALNEDLSSWTAADTAAQITQRKWEAARVAEQLRAYLEGECVEWLRRYLENGKETLQRADPPKTHVTHHPISDHEATLRCWALGFYPAEITLTWQRDGEDQTQDTELVETRPAGDRTFQKWAAVVVPSGEEQRYTCHVQHEGLPKPLTLRW
notes: also called B27052-Fc; HLA2-Fc; not shown: human IgG4 Fc (human IgG4-Fc vector, InvivoGen)
binds: human KIR3DL3 [1] | human LILRB2 [2] | human KIR3DL1 [3] | human LILRB1 [4] | mouse Pirb [5] | human KIR3DL2 [6]
